Source: the supplement of paper PMC10065799, “High-throughput profiling of sequence recognition by tyrosine kinases and SH2 domains using bacterial peptide display” (eLife, 2023)

Tested on: Fer (mouse)
Assay: phosphorylation enrichment, bacterial display (enrichment ratio); higher = better substrate or ligand; peptides without Tyr show the background
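Note: 11-residue human phosphosite peptides and single-mutation variants displayed on the E. coli surface, counted by deep sequencing, each peptide's frequency after selection divided by its frequency in the unselected input library; frequency after pTyr selection over input frequency; kinase dosed for 20-30% of maximal phosphorylation in three min.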

| Sequence | phosphorylation enrichment |
| --- | --- |
| AGLVQYYMEHH [PTPN11_Y80_E76G] | 0.499 |
| SGIFQYIIAKF [FOXL2_Y83_YF] | 0.503 |
| AGVIIYTSRFQ [PFAS_Y538_A535V] | 0.574 |
| ALLTKYSHSSM [DSCC1_Y374] | 0.56 |
| GAAMLYYPSVS [GPR143_Y177] | 0.63 |
| EVVGRYSVHYA [MLH1_Y183_N187Y] | 0.416 |
| LHAAAYQNALA [UQCRC2_Y182_R183Q] | 0.427 |
| LYSGDCYRIQG [DDR2_Y740_Y740C] | 0.73 |
| GADAIYDHVNE [UQCR10_Y44_I47V] | 3.42 |
| SLLKDYSPQLQ [OTC_Y345_T343K] | 0.489 |
| MAYDRYVAICS [OR8D4_Y123_C120Y] | 0.547 |
| RNIQQHNSFVS [PRKAR1A_Y373_Y373H] | 0.379 |
| RSSGGYEPRGR [FUS_Y239] | 0.418 |
| KFGTNYRVGSS [CPO_Y278_YF] | 0.418 |
| VTHKEYFIFLE [CAMKV_Y95_R92H] | 0.596 |
| QHVPDYRQNGF [PCDHGA1_Y890_V894G_YF] | 0.503 |
| MASTSYDYCRV [BST2_Y6] | 2.69 |

| Sequence | phosphorylation enrichment |
| --- | --- |
| SRDPFYEMLAA [CYTH1_Y382] | 12.4 |
| EEQKKYFNATK [SCN5A_Y1494_M1498T_YF] | 0.366 |
| ANVIHYFPTQA [SLC25A4_Y81_R80H] | 0.393 |
| HLVLNYGVCVC [JAK2_Y613] | 0.99 |
| DLDLTSIYPNI [PTEN_Y27_Y27S] | 0.425 |
| GGDGSYVSVPS [TNNI3K_Y425] | 0.415 |
| RGVVMYTSKDR [ZG16B_Y136_M133V] | 0.41 |
| NKYTTYLPRLP [C9orf24_Y126] | 0.38 |
| VKKNRYKDILP [PTPN12_Y64] | 0.511 |
| GRTGHYLCNAC [GATA1_Y223_D218G] | 0.32 |
| QELRRYLKSGI [MICA_Y194_V199I] | 0.534 |
| IPQEEYTATGL | 0.562 |
| GLAELYEFKKK [CKAP5_Y1854_YF] | 0.43 |
| ITNLLYHLVGW [GBA_Y412_V414L] | 3.17 |
| KHTLSFVDVGT [SDHA_Y629_Y629F] | 0.371 |
| KGTAGYTTVAV [RET_Y752_R749T] | 0.313 |

Biological target: Hck (UniProt P08631)
Sequence (P08631 whole entry, looked up): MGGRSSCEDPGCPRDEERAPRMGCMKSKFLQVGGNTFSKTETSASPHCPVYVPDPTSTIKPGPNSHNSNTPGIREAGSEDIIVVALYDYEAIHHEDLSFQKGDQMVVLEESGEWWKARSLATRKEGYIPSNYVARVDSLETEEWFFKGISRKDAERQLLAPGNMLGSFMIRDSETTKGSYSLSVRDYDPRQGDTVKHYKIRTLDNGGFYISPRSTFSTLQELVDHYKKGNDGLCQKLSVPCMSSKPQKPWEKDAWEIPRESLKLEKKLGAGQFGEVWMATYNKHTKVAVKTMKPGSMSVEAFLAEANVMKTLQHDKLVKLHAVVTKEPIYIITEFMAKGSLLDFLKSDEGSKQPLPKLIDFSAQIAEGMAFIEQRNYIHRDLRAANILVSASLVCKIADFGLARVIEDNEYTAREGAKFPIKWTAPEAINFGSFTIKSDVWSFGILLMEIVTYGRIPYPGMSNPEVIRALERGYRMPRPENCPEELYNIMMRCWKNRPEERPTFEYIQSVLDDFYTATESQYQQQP
Assay: as above

| Sequence | phosphorylation enrichment |
| --- | --- |
| AGLVQYYMEHH [PTPN11_Y80_E76G] | 0.754 |
| SGIFQYIIAKF [FOXL2_Y83_YF] | 0.546 |
| AGVIIYTSRFQ [PFAS_Y538_A535V] | 0.664 |
| ALLTKYSHSSM [DSCC1_Y374] | 0.485 |
| GAAMLYYPSVS [GPR143_Y177] | 1.46 |
| EVVGRYSVHYA [MLH1_Y183_N187Y] | 0.38 |
| LHAAAYQNALA [UQCRC2_Y182_R183Q] | 0.45 |
| LYSGDCYRIQG [DDR2_Y740_Y740C] | 1.16 |
| GADAIYDHVNE [UQCR10_Y44_I47V] | 6.29 |
| SLLKDYSPQLQ [OTC_Y345_T343K] | 0.504 |
| MAYDRYVAICS [OR8D4_Y123_C120Y] | 0.745 |
| RNIQQHNSFVS [PRKAR1A_Y373_Y373H] | 0.378 |
| RSSGGYEPRGR [FUS_Y239] | 0.379 |
| KFGTNYRVGSS [CPO_Y278_YF] | 0.465 |
| VTHKEYFIFLE [CAMKV_Y95_R92H] | 0.54 |
| QHVPDYRQNGF [PCDHGA1_Y890_V894G_YF] | 0.455 |
| MASTSYDYCRV [BST2_Y6] | 0.905 |

| Sequence | phosphorylation enrichment |
| --- | --- |
| SRDPFYEMLAA [CYTH1_Y382] | 4.88 |
| EEQKKYFNATK [SCN5A_Y1494_M1498T_YF] | 0.379 |
| ANVIHYFPTQA [SLC25A4_Y81_R80H] | 0.446 |
| HLVLNYGVCVC [JAK2_Y613] | 0.985 |
| DLDLTSIYPNI [PTEN_Y27_Y27S] | 0.478 |
| GGDGSYVSVPS [TNNI3K_Y425] | 0.412 |
| RGVVMYTSKDR [ZG16B_Y136_M133V] | 0.677 |
| NKYTTYLPRLP [C9orf24_Y126] | 0.714 |
| VKKNRYKDILP [PTPN12_Y64] | 0.507 |
| GRTGHYLCNAC [GATA1_Y223_D218G] | 0.392 |
| QELRRYLKSGI [MICA_Y194_V199I] | 0.496 |
| IPQEEYTATGL | 0.461 |
| GLAELYEFKKK [CKAP5_Y1854_YF] | 0.559 |
| ITNLLYHLVGW [GBA_Y412_V414L] | 4.8 |
| KHTLSFVDVGT [SDHA_Y629_Y629F] | 0.364 |
| KGTAGYTTVAV [RET_Y752_R749T] | 0.357 |

Biological target: EPHB1 (UniProt P54762)
Sequence (P54762 whole entry, looked up): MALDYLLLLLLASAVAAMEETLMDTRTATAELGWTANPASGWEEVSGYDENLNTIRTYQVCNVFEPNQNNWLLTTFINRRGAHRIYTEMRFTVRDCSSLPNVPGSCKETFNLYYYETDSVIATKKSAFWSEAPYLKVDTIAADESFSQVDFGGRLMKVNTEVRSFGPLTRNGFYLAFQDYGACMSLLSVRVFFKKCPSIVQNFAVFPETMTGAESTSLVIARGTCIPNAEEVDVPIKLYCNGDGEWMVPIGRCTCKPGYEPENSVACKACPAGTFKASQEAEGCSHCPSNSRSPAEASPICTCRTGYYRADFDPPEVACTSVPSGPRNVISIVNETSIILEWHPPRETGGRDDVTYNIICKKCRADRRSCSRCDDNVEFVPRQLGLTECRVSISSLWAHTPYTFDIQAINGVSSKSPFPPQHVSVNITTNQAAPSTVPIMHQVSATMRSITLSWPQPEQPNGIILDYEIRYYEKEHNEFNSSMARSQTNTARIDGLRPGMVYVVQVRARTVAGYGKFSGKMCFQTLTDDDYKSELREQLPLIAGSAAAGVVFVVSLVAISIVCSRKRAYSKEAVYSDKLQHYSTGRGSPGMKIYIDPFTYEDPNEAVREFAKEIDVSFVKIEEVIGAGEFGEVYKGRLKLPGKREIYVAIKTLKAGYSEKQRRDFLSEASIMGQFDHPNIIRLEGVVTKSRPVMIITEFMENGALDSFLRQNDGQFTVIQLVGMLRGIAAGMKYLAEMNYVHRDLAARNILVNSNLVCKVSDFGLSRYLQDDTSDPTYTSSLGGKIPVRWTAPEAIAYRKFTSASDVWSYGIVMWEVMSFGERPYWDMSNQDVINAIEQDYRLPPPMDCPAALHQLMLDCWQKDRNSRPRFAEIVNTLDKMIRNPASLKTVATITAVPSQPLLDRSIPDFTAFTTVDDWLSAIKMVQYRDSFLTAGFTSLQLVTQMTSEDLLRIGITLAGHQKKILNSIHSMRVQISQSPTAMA
Assay: as above

| Sequence | phosphorylation enrichment |
| --- | --- |
| AGLVQYYMEHH [PTPN11_Y80_E76G] | 0.973 |
| SGIFQYIIAKF [FOXL2_Y83_YF] | 0.602 |
| AGVIIYTSRFQ [PFAS_Y538_A535V] | 0.636 |
| ALLTKYSHSSM [DSCC1_Y374] | 0.442 |
| GAAMLYYPSVS [GPR143_Y177] | 1.5 |
| EVVGRYSVHYA [MLH1_Y183_N187Y] | 0.475 |
| LHAAAYQNALA [UQCRC2_Y182_R183Q] | 0.433 |
| LYSGDCYRIQG [DDR2_Y740_Y740C] | 1.8 |
| GADAIYDHVNE [UQCR10_Y44_I47V] | 1.34 |
| SLLKDYSPQLQ [OTC_Y345_T343K] | 0.554 |
| MAYDRYVAICS [OR8D4_Y123_C120Y] | 1.28 |
| RNIQQHNSFVS [PRKAR1A_Y373_Y373H] | 0.604 |
| RSSGGYEPRGR [FUS_Y239] | 0.323 |
| KFGTNYRVGSS [CPO_Y278_YF] | 0.422 |
| VTHKEYFIFLE [CAMKV_Y95_R92H] | 1.13 |
| QHVPDYRQNGF [PCDHGA1_Y890_V894G_YF] | 0.589 |
| MASTSYDYCRV [BST2_Y6] | 4.88 |

| Sequence | phosphorylation enrichment |
| --- | --- |
| SRDPFYEMLAA [CYTH1_Y382] | 3.5 |
| EEQKKYFNATK [SCN5A_Y1494_M1498T_YF] | 0.356 |
| ANVIHYFPTQA [SLC25A4_Y81_R80H] | 0.528 |
| HLVLNYGVCVC [JAK2_Y613] | 1.61 |
| DLDLTSIYPNI [PTEN_Y27_Y27S] | 0.498 |
| GGDGSYVSVPS [TNNI3K_Y425] | 0.382 |
| RGVVMYTSKDR [ZG16B_Y136_M133V] | 0.601 |
| NKYTTYLPRLP [C9orf24_Y126] | 0.454 |
| VKKNRYKDILP [PTPN12_Y64] | 0.47 |
| GRTGHYLCNAC [GATA1_Y223_D218G] | 0.4 |
| QELRRYLKSGI [MICA_Y194_V199I] | 0.332 |
| IPQEEYTATGL | 0.622 |
| GLAELYEFKKK [CKAP5_Y1854_YF] | 0.307 |
| ITNLLYHLVGW [GBA_Y412_V414L] | 2.74 |
| KHTLSFVDVGT [SDHA_Y629_Y629F] | 0.319 |
| KGTAGYTTVAV [RET_Y752_R749T] | 0.46 |

Biological target: Fyn (UniProt P06241)
Sequence (P06241 whole entry, looked up): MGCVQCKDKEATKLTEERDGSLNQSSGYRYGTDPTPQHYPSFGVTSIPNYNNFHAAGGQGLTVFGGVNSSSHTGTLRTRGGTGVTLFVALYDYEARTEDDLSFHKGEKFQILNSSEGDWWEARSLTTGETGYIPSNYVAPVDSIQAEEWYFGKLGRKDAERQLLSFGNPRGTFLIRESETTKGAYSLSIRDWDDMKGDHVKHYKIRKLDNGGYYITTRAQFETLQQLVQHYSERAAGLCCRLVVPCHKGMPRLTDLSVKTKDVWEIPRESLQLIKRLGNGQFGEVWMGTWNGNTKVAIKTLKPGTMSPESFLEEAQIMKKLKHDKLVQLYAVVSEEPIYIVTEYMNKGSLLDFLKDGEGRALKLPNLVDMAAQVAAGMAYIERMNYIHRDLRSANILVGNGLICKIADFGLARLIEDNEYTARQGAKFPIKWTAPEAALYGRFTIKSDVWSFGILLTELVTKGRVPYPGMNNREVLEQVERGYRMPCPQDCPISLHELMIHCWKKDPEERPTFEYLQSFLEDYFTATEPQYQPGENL
Assay: as above

| Sequence | phosphorylation enrichment |
| --- | --- |
| AGLVQYYMEHH [PTPN11_Y80_E76G] | 0.545 |
| SGIFQYIIAKF [FOXL2_Y83_YF] | 0.496 |
| AGVIIYTSRFQ [PFAS_Y538_A535V] | 0.649 |
| ALLTKYSHSSM [DSCC1_Y374] | 0.578 |
| GAAMLYYPSVS [GPR143_Y177] | 0.747 |
| EVVGRYSVHYA [MLH1_Y183_N187Y] | 0.392 |
| LHAAAYQNALA [UQCRC2_Y182_R183Q] | 0.474 |
| LYSGDCYRIQG [DDR2_Y740_Y740C] | 1.18 |
| GADAIYDHVNE [UQCR10_Y44_I47V] | 4.52 |
| SLLKDYSPQLQ [OTC_Y345_T343K] | 0.6 |
| MAYDRYVAICS [OR8D4_Y123_C120Y] | 0.486 |
| RNIQQHNSFVS [PRKAR1A_Y373_Y373H] | 0.443 |
| RSSGGYEPRGR [FUS_Y239] | 0.412 |
| KFGTNYRVGSS [CPO_Y278_YF] | 0.444 |
| VTHKEYFIFLE [CAMKV_Y95_R92H] | 0.623 |
| QHVPDYRQNGF [PCDHGA1_Y890_V894G_YF] | 0.531 |
| MASTSYDYCRV [BST2_Y6] | 0.481 |

| Sequence | phosphorylation enrichment |
| --- | --- |
| SRDPFYEMLAA [CYTH1_Y382] | 2.55 |
| EEQKKYFNATK [SCN5A_Y1494_M1498T_YF] | 0.34 |
| ANVIHYFPTQA [SLC25A4_Y81_R80H] | 0.483 |
| HLVLNYGVCVC [JAK2_Y613] | 1.1 |
| DLDLTSIYPNI [PTEN_Y27_Y27S] | 0.506 |
| GGDGSYVSVPS [TNNI3K_Y425] | 0.443 |
| RGVVMYTSKDR [ZG16B_Y136_M133V] | 0.665 |
| NKYTTYLPRLP [C9orf24_Y126] | 0.51 |
| VKKNRYKDILP [PTPN12_Y64] | 0.466 |
| GRTGHYLCNAC [GATA1_Y223_D218G] | 0.332 |
| QELRRYLKSGI [MICA_Y194_V199I] | 0.482 |
| IPQEEYTATGL | 0.437 |
| GLAELYEFKKK [CKAP5_Y1854_YF] | 0.554 |
| ITNLLYHLVGW [GBA_Y412_V414L] | 2.56 |
| KHTLSFVDVGT [SDHA_Y629_Y629F] | 0.384 |
| KGTAGYTTVAV [RET_Y752_R749T] | 0.359 |
